Experimental data from patent US10772928B2, “Modulation and detection of a neuronal alternative splicing regulatory network for treatment and diagnosis of neurological disorders” (The Governing Council of the University of Toronto, priority 2014, dated 2020).

T1: nSR100 (Mus musculus, UniProt Q8BKA3)
T1 construct: host or cells: mouse N2A cells
T1 sequence (Q8BKA3 1-608): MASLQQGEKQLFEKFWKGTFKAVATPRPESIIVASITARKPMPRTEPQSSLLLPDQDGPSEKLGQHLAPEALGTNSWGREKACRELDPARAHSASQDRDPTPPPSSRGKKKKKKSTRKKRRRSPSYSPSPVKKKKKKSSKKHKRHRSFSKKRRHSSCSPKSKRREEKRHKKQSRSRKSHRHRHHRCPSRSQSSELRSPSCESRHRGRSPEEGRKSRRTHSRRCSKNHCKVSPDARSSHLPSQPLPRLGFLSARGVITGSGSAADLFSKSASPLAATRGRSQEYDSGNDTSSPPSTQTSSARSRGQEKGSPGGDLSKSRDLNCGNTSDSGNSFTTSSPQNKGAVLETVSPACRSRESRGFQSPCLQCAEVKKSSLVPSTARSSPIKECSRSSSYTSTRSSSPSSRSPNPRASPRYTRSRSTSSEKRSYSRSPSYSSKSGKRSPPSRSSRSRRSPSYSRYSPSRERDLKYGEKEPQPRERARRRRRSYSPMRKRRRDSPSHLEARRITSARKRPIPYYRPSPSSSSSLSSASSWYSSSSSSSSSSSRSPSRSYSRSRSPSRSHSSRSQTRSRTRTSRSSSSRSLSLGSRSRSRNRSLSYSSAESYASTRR


Columns and labels:
nSR100 [1] = target: T1, nSR100; assay: AP-MS nSR100 interaction partners from mouse N2A cells (Table 5); format: binding; conditions: for AvgP (average of the SAINT scores) / MaxP (maximal SAINT score): bait Srrm4; for FoldChange between the prey Avg spectra of the bait and control purifications: bait Srrm4, 0.1 added to prevent division by 0; for AvgSpec (average number of spectra per replicate): bait Srrm4, 2 replicates; for Spectra (number of spectra for the prey in the purification of the bait): AP-MS; for SpecSum: bait Srrm4, sum of spectra over 2 replicates
Description: By applying affinity purification coupled to mass-spectrometry (AP-MS), several interaction nSR100 partner proteins were detected that provide insight into mechanisms of post-translational regulation of nSR100 levels.

nSR100 [2] = target: T1, nSR100; assay: Regulation by nSR100: microexon inclusion level (PSI) by RNA-Seq in mouse N2A cells depleted of nSR100 (Table 2); format: cell-based; conditions: YES/NO
Description: A-H) Percent of neural-regulated exons within each length class that is affected at 15<|ΔPSI|<25 and |ΔPSI|>25 by (A) RBFOX1 knockdown in human neural precursor cells; (B) MBNL1 and MBNL2 double knockdown in human HeLa cells; (C) ESRP1 knockdown in human PNT2 cells; (D) nSR100/Srrm4 knockdown in mouse N2A cells; (E) Ptbp1 knockdown in mouse N2A cells; (F) Ptbp2 knockout in mouse cortex (P1 stage); (G) Ptbp2 knockout in mouse embryonic brain (18.5 days post-conception); and (H) Rbfox1 knockout. p values correspond to two-sided proportion tests of regulated versus non-regulated events. I) Expression of nSR100 in different isolated brain cell types (Zhang et al., 2014). Error bars indicate SEM. […]
An RNA-Seq analysis pipeline was developed to detect and quantify all AS event classes involving all hypothetically possible splice junctions formed by the usage of annotated and unannotated splice sites, including those that demarcate microexons. […]
A multi-module analysis pipeline was developed that uses RNA-Seq, expressed sequence tag (EST) and cDNA data, as well as gene annotations and evolutionary conservation, to assemble libraries of exon-exon-junctions (EEJs) for subsequent read alignment to detect and quantify AS events in RNA-Seq data. […] Alt3 or Alt5 events were quantified based on the fraction of reads supporting the usage of each alternative splice site. […]

[3] = bait Srrm4, biological replicate 1 (first number of the cell)
[4] = bait Srrm4, biological replicate 2 (second number of the cell)

AvgP (average of the SAINT scores) (nSR100 [1]) | MaxP (maximal SAINT score) (nSR100 [1]) | FoldChange between the prey Avg spectra of the bait and control purifications (nSR100 [1]) | AvgSpec (average number of spectra per replicate) (nSR100 [1]) | Spectra (number of spectra for the prey in the purification of the bait) (nSR100 [1]; [3]) | Spectra (number of spectra for the prey in the purification of the bait) (nSR100 [1]; [4]) | SpecSum (nSR100 [1]) | Molecule | Regulation by nSR100 (nSR100 [2])
0.99 | 1 | 3.82 | 21 | 18 | 24 | 42 | Eif4a3 (protein, UniProt Q91VC3 1-411, looked up) Eukaryotic initiation factor …: MAANATMATSGSARKRLLKEEDMTKVEFETSEEVDVTPTFDTMGLREDLLRGIYAYGFEKPSAIQQRAIKQIIKGRDVIAQSQSGTGKTATFSVSVLQCLDIQVRETQALILAPTRELAVQIQKGLLALGDYMNVQCHACIGGTNVGEDIRKLDYGQHVVAGTPGRVFDMIRRRSLRTRAIKMLVLDEADEMLNKGFKEQIYDVYRYLPPATQVVLISATLPHEILEMTNKFMTDPIRILVKRDELTLEGIKQFFVAVEREEWKFDTLCDLYDTLTITQAVIFCNTKRKVDWLTEKMREANFTVSSMHGDMPQKERESIMKEFRSGASRVLISTDVWARGLDVPQVSLIINYDLPNNRELYIHRIGRSGRYGRKGVAINFVKNDDIRILRDIEQYYSTQIDEMPMNVADLI | –
1 | 1 | 90 | 9 | 8 | 10 | 18 | Fip1l1 (protein, UniProt Q9D824 1-581, looked up) Pre-mRNA 3'-end-processing …: MSAGEVERLVELSGGTGGDEEEEWLYGGPWDVHVHSDLAKDLDENEVERPEEENASANPPSGIEEEAAENGVAKPKVTETEDDSDSDSDDDEDDVHVTIGDIKTGAPQYGSYGTAPVNLNIKAGGRVYGNTGTKVKGVDLDAPGSINGVPLLEVDLDSFEDKPWRKPGADLSDYFNYGFNEDTWKAYCEKQKRIRMGLEVIPVTSTTNKITVQQGRTGNSEKEAALPSTKAEFTSPPSLFKTGLPPSRNSTSSQSQTSTASRKASSSVGKWQDRYGRAESPDLRRLPGAIDVIGQTITISRVEGRRRANENSNIQVLSDRSATEVDNNFSKPPPFFPPGAPPTHLPPPPFLPPPPTVSTAPPLIPPPGIPITVPPPGFPPPPGAPPPSLIPTIESGHSSGYDSRSARAFPYGNVAFPHLTSSAPSWPSLVDTTKQWDYYARREKDRDRDRERDRDRERERDRDRERERTRERERERDHSPTPSVFNSDEERYRYREYAERGYERHRASREKEERHRERRHREKEETRHKSSRSNSRRRHESEEGDSHRRHKHKKSKRSKEGKEAGSEPVPEQESTEAAPAE | NO (regulation may occur but does not meet a miminal threshold change of PSI≥10)
